This assay deals with Mycobacterium tuberculosis MmpL5 (Rv0676c) with a C-terminal 1×FLAG tag (Mycobacterium tuberculosis, UniProt P9WJV1). Briefly: cryo-EM structure.

The values that follow come from PMC12122801 (Nature Communications, 2025).

Chain of Mycobacterium tuberculosis MmpL5 (Rv0676c) with a C-terminal 1×FLAG tag (P9WJV1 whole entry): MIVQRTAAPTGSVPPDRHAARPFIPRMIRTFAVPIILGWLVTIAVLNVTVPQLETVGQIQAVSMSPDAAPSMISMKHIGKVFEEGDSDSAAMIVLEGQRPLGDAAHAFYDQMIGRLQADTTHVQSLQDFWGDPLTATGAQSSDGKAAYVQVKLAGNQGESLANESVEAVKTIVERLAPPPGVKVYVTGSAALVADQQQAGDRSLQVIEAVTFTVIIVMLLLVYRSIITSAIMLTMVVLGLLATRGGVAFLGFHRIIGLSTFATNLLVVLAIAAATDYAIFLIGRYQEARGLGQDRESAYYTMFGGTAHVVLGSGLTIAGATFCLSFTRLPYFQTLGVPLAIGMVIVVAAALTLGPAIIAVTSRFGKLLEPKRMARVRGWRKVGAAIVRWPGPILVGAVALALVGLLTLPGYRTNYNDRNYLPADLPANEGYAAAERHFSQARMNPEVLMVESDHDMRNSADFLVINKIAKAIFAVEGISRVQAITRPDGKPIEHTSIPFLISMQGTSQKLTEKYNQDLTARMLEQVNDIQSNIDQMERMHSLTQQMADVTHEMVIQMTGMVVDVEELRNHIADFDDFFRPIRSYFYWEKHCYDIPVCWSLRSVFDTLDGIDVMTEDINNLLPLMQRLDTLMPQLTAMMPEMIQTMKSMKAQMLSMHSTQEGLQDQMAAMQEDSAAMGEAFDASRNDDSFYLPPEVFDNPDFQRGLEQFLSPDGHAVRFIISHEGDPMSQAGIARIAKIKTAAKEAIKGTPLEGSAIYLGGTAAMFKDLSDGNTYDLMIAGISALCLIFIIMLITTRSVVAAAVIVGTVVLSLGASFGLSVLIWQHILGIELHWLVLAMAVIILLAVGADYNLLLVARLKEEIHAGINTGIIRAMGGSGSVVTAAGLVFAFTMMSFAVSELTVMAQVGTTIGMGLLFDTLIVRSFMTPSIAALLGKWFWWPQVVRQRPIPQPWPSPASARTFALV

B1: Mycobacterium smegmatis acyl carrier protein AcpM (MSMEG_4326) (natural protein)
chain: MAATQEEIIAGLAEIIEEVTGIEPSEVTPEKSFVDDLDIDSLSMVEIAVQTEDKYGVKIPDEDLAGLRTVGDVVAYIQKLEEENPEAAAALREKFAADQ
modifications: 4'-phosphopantetheine (Ppant) covalently attached to Ser41 via a phosphodiester (holo-form)
Turning to B1, the binding result was “binds”.
